B1: NF-κB p65 (residues 1-306) (domain or fragment, human, UniProt Q04206 1-306, looked up)
chain: MDELFPLIFPAEPAQASGPYVEIIEQPKQRGMRFRYKCEGRSAGSIPGERSTDTTKTHPTIKINGYTGPGTVRISLVTKDPPHRPHPHELVGKDCRDGFYEAELCPDRCIHSFQNLGIQCVKKRDLEQAISQRIQTNNNPFQVPIEEQRGDYDLNAVRLCFQVTVRDPSGRPLRLPPVLSHPIFDNRAPNTAELKICRVNRNSGSCLGGDEIFLLCDKVQKEDIEVYFTGPGWEARGSFSQADVHRQVAIVFRTPPYADPSLQAPVRVSMQLRRPSDRELSEPMEFQYLPDTDDRHRIEEKRKRTY
notes: NF-κB p65 (RelA), human, residues 1-306 (Rel homology region with the C-terminal NLS), untagged; also called RelA; p65 RHR; source: E. coli BL21 DE3, purified (polyethyleneimine and ammonium sulfate precipitation, HiTrap SP, Superdex 200)
B2: ΔDBD-p65 (residues 191-316) (domain or fragment, human, UniProt Q04206 191-316, looked up)
chain: TAELKICRVNRNSGSCLGGDEIFLLCDKVQKEDIEVYFTGPGWEARGSFSQADVHRQVAIVFRTPPYADPSLQAPVRVSMQLRRPSDRELSEPMEFQYLPDTDDRHRIEEKRKRTYETFKSIMKKS
notes: also called p65 dimerization domain; source: E. coli BL21 DE3, purified (Glutathione Resin, PreScission cleavage, Superdex 200)
B3: ΔNLS-p50 (residues 41-351) (domain or fragment, human, UniProt P19838 41-351, looked up)
chain: GPYLQILEQPKQRGFRFRYVCEGPSHGGLPGASSEKNKKSYPQVKICNYVGPAKVIVQLVTNGKNIHLHAHSLVGKHCEDGICTVTAGPKDMVVGFANLGILHVTKKKVFETLEARMTEACIRGYNPGLLVHPDLAYLQAEGGGDRQLGDREKELIRQAALQQTKEMDLSVVRLMFTAFLPDSTGSFTRRLEPVVSDAIYDSKAPNASNLKIVRMDRTAGCVTGGEEIYLLCDKVQKDDIQIRFYEEEENGGVWEGFGDFSPTDVHRQFAIVFKTPKYKDINITKPASVFVQLRRKSDLETSEPKPFLYYP
notes: NF-κB p50, human, residues 41-351, lacking the C-terminal NLS, untagged; also called p50-ΔNLS; source: E. coli BL21 DE3, purified (polyethyleneimine and ammonium sulfate precipitation, HiTrap SP, Superdex 200)
B4: ΔDBD-p50 (residues 243-366) (domain or fragment, human, UniProt P19838 243-366, looked up)
chain: KAPNASNLKIVRMDRTAGCVTGGEEIYLLCDKVQKDDIQIRFYEEEENGGVWEGFGDFSPTDVHRQFAIVFKTPKYKDINITKPASVFVQLRRKSDLETSEPKPFLYYPEIKDKEEVQRKRQKL
notes: also called p50 dimerization domain; source: E. coli BL21 DE3, purified (Glutathione Resin, PreScission cleavage, Superdex 200)
B5: ΔNLS-p65 (residues 1-290) (domain or fragment, human, UniProt Q04206 1-290, looked up)
chain: MDELFPLIFPAEPAQASGPYVEIIEQPKQRGMRFRYKCEGRSAGSIPGERSTDTTKTHPTIKINGYTGPGTVRISLVTKDPPHRPHPHELVGKDCRDGFYEAELCPDRCIHSFQNLGIQCVKKRDLEQAISQRIQTNNNPFQVPIEEQRGDYDLNAVRLCFQVTVRDPSGRPLRLPPVLSHPIFDNRAPNTAELKICRVNRNSGSCLGGDEIFLLCDKVQKEDIEVYFTGPGWEARGSFSQADVHRQVAIVFRTPPYADPSLQAPVRVSMQLRRPSDRELSEPMEFQYLP
notes: NF-κB p65 (RelA), human, residues 1-290 (stop codon at position D291), lacking the C-terminal NLS, untagged; source: E. coli BL21 DE3, purified (polyethyleneimine and ammonium sulfate precipitation, HiTrap SP, Superdex 200)
B6: NF-κB p50 (residues 1-366) (domain or fragment, human, UniProt P19838 1-366, looked up)
chain: MAEDDPYLGRPEQMFHLDPSLTHTIFNPEVFQPQMALPTDGPYLQILEQPKQRGFRFRYVCEGPSHGGLPGASSEKNKKSYPQVKICNYVGPAKVIVQLVTNGKNIHLHAHSLVGKHCEDGICTVTAGPKDMVVGFANLGILHVTKKKVFETLEARMTEACIRGYNPGLLVHPDLAYLQAEGGGDRQLGDREKELIRQAALQQTKEMDLSVVRLMFTAFLPDSTGSFTRRLEPVVSDAIYDSKAPNASNLKIVRMDRTAGCVTGGEEIYLLCDKVQKDDIQIRFYEEEENGGVWEGFGDFSPTDVHRQFAIVFKTPKYKDINITKPASVFVQLRRKSDLETSEPKPFLYYPEIKDKEEVQRKRQKL
notes: NF-κB p50, human, residues 1-366 (Rel homology region with the C-terminal NLS); also called p50 RHR; source: E. coli BL21 DE3, purified (Glutathione Resin, PreScission cleavage, Superdex 200)
B7: IκBα (residues 67-287) (domain or fragment, UniProt P25963 67-287, looked up)
chain: KQQLTEDGDSFLHLAIIHEEKALTMEVIRQVKGDLAFLNFQNNLQQTPLHLAVITNQPEIAEALLGAGCDPELRDFRGNTPLHLACEQGCLASVGVLTQSCTTPHLHSILKATNYNGHTCLHLASIHGYLGIVELLVSLGADVNAQEPCNGRTALHLAVDLQNPDLVSLLLKCGADVNRVTYQGYSPYQLTWGRPSTRIQQQLGQLTLENLQMLPESEDEE
notes: IκBα, residues 67-287, untagged; source: recombinant, expressed and purified as previously described (pET-11a)

Assays:
[1] = biological target: ΔDBD-p50/p65 heterodimer (human) (UniProt P19838); assay: SEC; trimeric complex assembled from purified ΔIBB-importin α3 and ΔDBD-p50/p65; peak fraction analysed by SDS-PAGE and native agarose gel
[2] = biological target: T1, NF-κB p50/p65 heterodimer (human, UniProt P19838 1-366; Q04206 1-306); assay: SEC-SAXS; pre-assembled NF-κB dimer:ΔIBB-importin α3 complexes at 4.5-6.6 mg/ml on Superdex 200 10/300 GL; 20 mM Tris-HCl pH 7.0-7.5, 0.15-0.175 M NaCl, glycerol, 0.5 mM TCEP, 4 °C; mass from volume of correlation
T1 construct: NF-κB p50, human, residues 1-366; NF-κB p65 (RelA), human, residues 1-306, untagged; also called wild-type NF-κB; source: subunits from E. coli BL21 DE3, purified; assembled by incubating p50:p65 at 1:1.5 molar ratio; copies: 1 + 1

[3] = biological target: NF-κB p50/p50 homodimer (human) (UniProt P19838); assay: as above
[4] = biological target: NF-κB p65/p65 homodimer (human) (UniProt Q04206); assay: as above
[5] = biological target: ΔIBB-importin α3 (tag not told for these experiments) (human) (UniProt O00629); assay: native gel or EMSA; increasing molar excess of pre-assembled p50/p65 added to a fixed 10 μg (~108 pmoles) of ΔIBB-importin α1 or α3; 1.5% agarose gel, 4 °C, 2 h at 50 V, Coomassie
[6] = biological target: ΔIBB-importin α1 (tag not told for this experiment) (human) (UniProt P52292); assay: as above
[7] = biological target: p50/ΔNLS-p65 heterodimer (human) (UniProt P19838); assay: ELISA; NF-κB hetero/homodimers (200 ng) coated on MaxiSorp plates; His-importin α 1000 to 0 nM in PBST, room temperature 1 h; anti-6xHis-HRP; one-site specific binding fit
[8] = biological target: T1, NF-κB p50/p65 heterodimer; assay: as above
[9] = biological target: NF-κB p50/p50 homodimer (human) (UniProt P19838); assay: as above
[10] = biological target: NF-κB p65/p65 homodimer (human) (UniProt Q04206); assay: as above
[11] = biological target: B6; assay: assembly of heterodimers by co-incubation; purified p50 and p65 constructs incubated at 1:1.5 p50:p65 molar ratio, 25 °C 30 min, 37 °C 1 h, centrifuged at 12,000 x g; conditions: both partners purified
[12] = biological target: B3; assay: as above; conditions: both partners purified
[13] = biological target: the molecule itself; assay: SEC; homodimeric NF-κB complexes concentrated and injected on Superdex 200 16/60 in 20 mM Tris-HCl pH 7.5, 150 mM NaCl, 5 mM β-mercaptoethanol, 2% glycerol
[14] = biological target: B1; assay: assembly of heterodimers by co-incubation; purified p50 and p65 constructs incubated at 1:1.5 p50:p65 molar ratio, 25 °C 30 min, 37 °C 1 h, centrifuged at 12,000 x g; conditions: both partners purified
[15] = biological target: T1, NF-κB p50/p65 heterodimer; assay: native gel or EMSA; purified IκBα titrated against ~130 pmoles of pre-formed p50/p65 (Fig. 4a lanes 5-10); 1 h at 4 °C; 1.5% agarose gel; conditions: both partners purified

ΔIBB-importin α3 (tag not told for these experiments) (human), sequence (O00629 68-487, stated change not applied): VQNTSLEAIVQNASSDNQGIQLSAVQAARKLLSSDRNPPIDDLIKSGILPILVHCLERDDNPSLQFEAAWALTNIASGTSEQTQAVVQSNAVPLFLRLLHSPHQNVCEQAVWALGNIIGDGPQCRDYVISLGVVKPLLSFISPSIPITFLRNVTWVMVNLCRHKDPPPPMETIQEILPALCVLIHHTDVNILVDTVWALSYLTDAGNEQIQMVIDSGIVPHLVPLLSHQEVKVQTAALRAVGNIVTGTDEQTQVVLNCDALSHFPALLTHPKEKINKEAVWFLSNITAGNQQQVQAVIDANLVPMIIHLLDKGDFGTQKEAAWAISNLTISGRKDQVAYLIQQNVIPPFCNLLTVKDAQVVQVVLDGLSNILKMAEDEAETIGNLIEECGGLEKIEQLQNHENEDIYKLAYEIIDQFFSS

With “ΔIBB-importin α3 (tag not told for these experiments) (from UniProt O00629 68-487) (domain or fragment)” the stoichiometry N [1] was 1, the stoichiometry N [2] was 1 and the stoichiometry N [3] was 2. For the same molecule, the stoichiometry N [4] was 1.

“NF-κB p50/p65 heterodimer (from UniProt P19838 1-366; Q04206 1-306) (complex)” showed a stoichiometry N [5] of 1 and a stoichiometry N [6] of 1.

“His-ΔIBB-importin α3 (from UniProt O00629 68-487) (domain or fragment)” was tested, and the Kd [7] was 59.6 nM, the Kd [8] was 45.8 nM and the Kd [9] was 15.4 nM. The Kd [10] was 35.2 nM.

B1: binds [11]; binds [12]; binds [13].

B2: binds [13].

B3: binds [13].

B4: binds [14]; binds [13].

B5: binds [11]; binds [12]; binds [13].

B6: binds [13].

With B7 the “stoichiometry N” value [15] was 1.

Source: publication PMC8904830, “Differential recognition of canonical NF-κB dimers by Importin α3” (Nature Communications, 2022)
